Measurements: patent US20200377604A1 (Genentech, published 2020)

Biological target: T1, knob Fc F241R/F243S (Homo sapiens (Human), UniProt P0DOX5 223-449 = IgG part, F241R; F243S)
T1 construct: Positions are EU numbers; the entry starts at 221; also called Knob F241R/F243S; F241R/F243S mutant knob
Assay: SPR (BioRad ProteOn), immobilized ligand Knob F241R/F243S, analyte Knob F241S/F243R at 6.25-200 nM
Method: FIGS. 11A-11E are a series of the surface plasmon resonance (SPR) spectra curves from experiments using an immobilized ligand. The analyte was passed over the ligand and the homodimerization was monitored. Analyte concetrations were tested at 6.25 nM, 12.5 nM, 25 nM, 50 nM, 100 nM and 200 nM. The ligands were: (A) The knob wild-type, (B) hole wild-type, (C) knob F241R/F243S, (D) knob F241S/F243R, and (E) hole F241S/F243R.
Using a BioRad ProteOn™ system, knob wild-type, hole wild-type, knob F241R/F243S, knob F241S/F243R, and hole F241S/F243R ligands were immobilized on an NHS activated sensor. The analyte, knob F241S/F243R, was passed over the sensor in 25 mM Tris 150 mM NaCl 0.05% Tween-20 pH 8.0. Analyte concentrations were 200 nM, 100 nM, 50 nM, 25 nM, 12.5 nM, and 6.25 nM. The ProteOnM chip was regenerated between each analyte concentration using 10 mM Glycine pH3. […] The Kd for the heterodimers is in the single digit nanomolar range in both cases.

B1: knob Fc F241S/F243R (other, name in EU numbering)
chain: DKTHTSPPSPAPELLGGPSVSLRPPKPKDTLMISRTPEVTCVVVDVSHEDPEVKFNWYVDGVEVHNAKTKPREEQYNSTYRVVSVLTVLHQDWLNGKEYKCKVSNKALPAPIEKTISKAKGQPREPQVYTLPPSREEMTKNQVSLWCLVKGFYPSDIAVEWESNGQPENNYKTTPPVLDSDGSFFLYSKLTVDKSRWQQGNVFSCSVMHEALHNHYTQKSLSLSPGK
notes: Positions are EU numbers; the entry starts at 221; This was the analyte in the SPR experiment; also called Knob F241S/F243R; F241S/F243R mutant knob
  binding result: no binding (tested: 200 nM)
